These results are taken from US20240270821A1, “GIP/GLP1/GCG TRI-RECEPTOR AGONISTS AND USES THEREOF” (priority 2023, published 2024).

What all share (assay): cell-based or functional assay
The target in one test is hGLP-1R (Homo sapiens, UniProt P43220).
Test [1] concerns the target T1, human GIP receptor (human) (UniProt P48546).
T1 sequence (looked up): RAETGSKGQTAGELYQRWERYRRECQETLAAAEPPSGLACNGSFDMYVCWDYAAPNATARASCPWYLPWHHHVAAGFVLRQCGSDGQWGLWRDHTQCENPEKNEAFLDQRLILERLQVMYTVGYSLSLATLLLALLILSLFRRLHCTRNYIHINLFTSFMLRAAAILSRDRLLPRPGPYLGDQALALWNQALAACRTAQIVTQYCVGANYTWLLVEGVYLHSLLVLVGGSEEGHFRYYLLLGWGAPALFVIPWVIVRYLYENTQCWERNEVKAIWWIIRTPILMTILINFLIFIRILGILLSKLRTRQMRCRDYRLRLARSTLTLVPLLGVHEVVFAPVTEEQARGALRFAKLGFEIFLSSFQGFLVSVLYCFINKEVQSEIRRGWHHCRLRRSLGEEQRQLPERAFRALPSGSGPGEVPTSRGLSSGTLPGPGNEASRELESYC

Test [2] concerns the target human glucagon receptor (human) (UniProt P47871).

Sequence of hGLP-1R (P43220 24-463): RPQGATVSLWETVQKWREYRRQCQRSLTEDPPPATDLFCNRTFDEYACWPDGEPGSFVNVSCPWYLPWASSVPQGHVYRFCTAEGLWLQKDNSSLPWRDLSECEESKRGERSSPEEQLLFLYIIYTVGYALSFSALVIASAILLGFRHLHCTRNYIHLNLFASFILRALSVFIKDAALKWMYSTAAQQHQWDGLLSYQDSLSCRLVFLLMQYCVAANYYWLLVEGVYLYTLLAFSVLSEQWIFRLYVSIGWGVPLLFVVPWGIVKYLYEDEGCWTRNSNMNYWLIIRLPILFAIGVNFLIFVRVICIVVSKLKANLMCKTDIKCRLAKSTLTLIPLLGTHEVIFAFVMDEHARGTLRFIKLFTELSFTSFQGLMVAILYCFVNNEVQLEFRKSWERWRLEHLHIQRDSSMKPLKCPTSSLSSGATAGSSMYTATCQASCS
Sequence of human glucagon receptor (human) (P47871 26-477): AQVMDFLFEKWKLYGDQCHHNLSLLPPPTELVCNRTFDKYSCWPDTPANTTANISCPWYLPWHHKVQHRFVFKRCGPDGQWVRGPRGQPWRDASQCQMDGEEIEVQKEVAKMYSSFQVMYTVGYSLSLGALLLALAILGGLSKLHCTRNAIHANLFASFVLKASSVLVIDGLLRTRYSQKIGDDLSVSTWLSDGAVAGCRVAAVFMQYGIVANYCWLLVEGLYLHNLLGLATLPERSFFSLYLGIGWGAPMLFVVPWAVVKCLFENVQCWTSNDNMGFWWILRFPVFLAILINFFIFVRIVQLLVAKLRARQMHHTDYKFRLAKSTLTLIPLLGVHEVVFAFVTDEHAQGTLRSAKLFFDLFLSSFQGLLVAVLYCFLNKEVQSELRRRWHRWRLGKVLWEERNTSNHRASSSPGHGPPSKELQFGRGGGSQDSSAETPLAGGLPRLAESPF

B1: Example 1098 (peptide)
chain: YXQGTFTSDXSQXLDXKAQXQFIEXLIEXGPSSGEPPPSGSEE
modifications: non-natural residues, acylated Lys (AEEA-γGlu-C18 diacid), C-terminal amide; synthetic construct; SITE 2: note = 2-Aminoisobutyric Acid; SITE 10: note = 3-(4-Pyridyl)-L-alanine; SITE 13: note = alpha-methyl-leucine; SITE 16: note = L-ornithine; SITE 17: note = Lysine is chemically modified through conjugation of the epsilon-amino group of the Lysine side chain with (2-[2-(2-
Regarding B1, the Relative cAMP EC50 in the test with hGLP-1R is 1.22 nM; in test [1], 0.201 nM; in test [2] it was 6.2 nM. The values for the cAMP Rel EC50 (1% HSA) (in the test with hGLP-1R; in test [1]; in test [2]) were 184 nM, 31.2 nM and 994 nM, respectively.

B2: Example 1124 (peptide)
chain: YXQGTFTSDXSQXLDKKAQXAFIEXLIEXGPSSGEPPPSGEEE
modifications: non-natural residues (Aib, 4Pal, Me4Pal, αMeL); lipidated Lys; C-amide; synthetic construct; SITE 2: note = 2-Aminoisobutyric Acid; SITE 10: note = 3-(4-Pyridyl)-L-alanine; SITE 13: note = alpha-methyl-leucine; SITE 17: note = Lysine is chemically modified through conjugation of the epsilon-amino group of the Lysine side chain with (gamma-Glu)2-CO-(CH2)16-CO2H; SITE 20:
Regarding B2, the Relative cAMP EC50 in the test with hGLP-1R stood at 10.1 nM; in test [1], 0.187 nM; in test [2], 6.97 nM. Also, the cAMP Rel EC50 (1% HSA) with hGLP-1R came out at 304 nM; in test [1] it was 12 nM; in test [2], 400 nM.

B3: Example 1099 (peptide)
chain: YXQGTFTSDXSQXLDXKAQXAFIEXLIAXGPSSGEPPPSGSEE
modifications: non-natural residues, AEEA-γGlu-diacid acylated Lys, C-terminal amide; synthetic construct; SITE 2: note = 2-Aminoisobutyric Acid; SITE 10: note = 3-(4-Pyridyl)-L-alanine; SITE 13: note = alpha-methyl-leucine; SITE 16: note = L-ornithine; SITE 17: note = Lysine is chemically modified through conjugation of the epsilon-amino group of the Lysine side chain with (2-[2-(2-
Take B3: the figures for the Relative cAMP EC50 (in the test with hGLP-1R; in test [1]; in test [2]) were 0.73 nM, 0.076 nM and 3.47 nM, respectively. For the same molecule, the cAMP Rel EC50 (1% HSA) in the test with hGLP-1R was 75.8 nM; in test [1], 8.64 nM; in test [2], 472 nM.

B4: Example 1128 (peptide)
chain: YXQGTFTSDXSQXLDXKAQXQFIQXLIAXGPSSGEPPPSGGGE
modifications: Aib, 4Pal, αMeL, Orn, Me4Pal, αMeY; acylated lysine; amide; synthetic construct; SITE 2: note = 2-Aminoisobutyric Acid; SITE 10: note = 3-(4-Pyridyl)-L-alanine; SITE 13: note = alpha-methyl-leucine; SITE 16: note = L-ornithine; SITE 17: note = Lysine is chemically modified through conjugation of the epsilon-amino group of the Lysine side chain with D-Glutami
On to B4, for which the Relative cAMP EC50 was found to be 0.486 nM in the test with hGLP-1R, 0.0378 nM in test [1] and 9.88 nM in test [2]. The cAMP Rel EC50 (1% HSA) worked out at 52.8 nM in the test with hGLP-1R, 3.18 nM in test [1] and 869 nM in test [2].

B5: Example 1101 (peptide)
chain: YXQGTFTSDXSQXLDXKAQXAFIEYLIAXGPSSGEPPPSGSEE
modifications: non-natural residues, γGlu-C18 diacid lysine acylation, C-terminal amide; synthetic construct; SITE 2: note = 2-Aminoisobutyric Acid; SITE 10: note = 3-(4-Pyridyl)-L-alanine; SITE 13: note = alpha-methyl-leucine; SITE 16: note = L-ornithine; SITE 17: note = Lysine is chemically modified through conjugation of the epsilon-amino group of the Lysine side chain with D-Glutami
B5: the Relative cAMP EC50 was 1.75 nM in the test with hGLP-1R, 0.0592 nM in test [1] and 4.72 nM in test [2]. The cAMP Rel EC50 (1% HSA) stood at 246 nM in the test with hGLP-1R, 6.31 nM in test [1] and 827 nM in test [2].

B6: Example 1130 (peptide)
chain: YXQGTFTSDXSQXLDXKAQXAFIQXLIAXGPSSGEPPPSGGGE
modifications: Lys acylated γGlu-C18 diacid; non-natural residues; C-amide; synthetic construct; SITE 2: note = 2-Aminoisobutyric Acid; SITE 10: note = 3-(4-Pyridyl)-L-alanine; SITE 13: note = alpha-methyl-leucine; SITE 16: note = L-ornithine; SITE 17: note = Lysine is chemically modified through conjugation of the epsilon-amino group of the Lysine side chain with D-Glutami
Take B6: the Relative cAMP EC50 in the test with hGLP-1R stood at 0.641 nM; in test [1], 0.0441 nM; in test [2], 13.3 nM. In addition, the results for the cAMP Rel EC50 (1% HSA) (with hGLP-1R; in test [1]; in test [2]) were 44.5 nM, 3.73 nM and 1240 nM, respectively.

B7: Example 1104 (peptide)
chain: YXQGTFTSDXSQXLDXKAQXQFIEXLIEXGPSSGEPPPSGSEE
modifications: not fully specified; non-natural residues; Lys acylated C18 diacid via γGlu; C-term amide; synthetic construct; SITE 2: note = 2-Aminoisobutyric Acid; SITE 10: note = 3-(4-Pyridyl)-L-alanine; SITE 13: note = alpha-methyl-leucine; SITE 16: note = L-ornithine; SITE 17: note = Lysine is chemically modified through conjugation of the epsilon-amino group of the Lysine side chain with D-Glutami
For the molecule B7, the Relative cAMP EC50 was 1.7 nM in the test with hGLP-1R, 0.09 nM in test [1] and 11.1 nM in test [2]. Further, the results for the cAMP Rel EC50 (1% HSA) (with hGLP-1R; in test [1]; in test [2]) were 272 nM, 13.9 nM and 1470 nM, respectively.

B8: Example 1095 (peptide)
chain: YXQGTFTSDXSQXLDXKAQXAFIEYLIAXGPSSGEPPPSGSEE
modifications: non-natural residues, C-terminal amide, acylated Lys with fatty diacid; synthetic construct; SITE 2: note = 2-Aminoisobutyric Acid; SITE 10: note = 3-(4-Pyridyl)-L-alanine; SITE 13: note = alpha-methyl-leucine; SITE 16: note = L-ornithine; SITE 17: note = Lysine is chemically modified through conjugation of the epsilon-amino group of the Lysine side chain with (2-[2-(2-
B8: the Relative cAMP EC50 is 1.17 nM in the test with hGLP-1R, 0.065 nM in test [1] and 2.75 nM in test [2]. The values for the cAMP Rel EC50 (1% HSA) (in the test with hGLP-1R; in test [1]; in test [2]) were 159 nM, 8.73 nM and 337 nM, respectively.

B9: Example 1096 (peptide)
chain: YXQGTFTSDXSQXLDXKAQXAFIEYLIQXGPSSGEPPPSGSEE
modifications: non-natural residues; lipidated Lys AEEA-γGlu-C18 diacid; C-term amide; synthetic construct; SITE 2: note = 2-Aminoisobutyric Acid; SITE 10: note = 3-(4-Pyridyl)-L-alanine; SITE 13: note = alpha-methyl-leucine; SITE 16: note = L-ornithine; SITE 17: note = Lysine is chemically modified through conjugation of the epsilon-amino group of the Lysine side chain with (2-[2-(2-
As to B9, the Relative cAMP EC50 is 1.47 nM with hGLP-1R, 0.0799 nM in test [1] and 3.94 nM in test [2]. Also, the values for the cAMP Rel EC50 (1% HSA) (with hGLP-1R; in test [1]; in test [2]) were 194 nM, 11.6 nM and 397 nM, respectively.

B10: Example 106 (peptide)
chain: YXQGTFTSDFSXXLDKKAQXAFIEYLLAGGTSSGEPPPSGE
modifications: synthetic construct; SITE 2: note = 2-Aminoisobutyric Acid; SITE 12: note = L-ornithine; SITE 13: note = alpha-methyl-leucine; SITE 17: note = Lysine is chemically modified through conjugation of the epsilon-amino group of the Lysine side chain with (2-[2-(2-Amino-ethoxy)-ethoxy]-acetyl)-(gamma-Glu)
Turning to B10, the Relative cAMP EC50 with hGLP-1R was determined as 3.94 nM; in test [1] it was 0.345 nM; in test [2], 6.26 nM. Moreover, the results for the cAMP Rel EC50, nM (in the presence of 1% HSA) (with hGLP-1R; in test [1]; in test [2]) were 977 nM, 91 nM and 2000 nM, respectively.

B11: Example 1123 (peptide)
chain: YXQGTFTSDXSQXLDKKAQXAFIEXLIEXGPSSGEPPPSGE
modifications: Aib, 4Pal, αMeL, Me4Pal; acylated Lys; C-terminal amide; synthetic construct; SITE 2: note = 2-Aminoisobutyric Acid; SITE 10: note = 3-(4-Pyridyl)-L-alanine; SITE 13: note = alpha-methyl-leucine; SITE 17: note = Lysine is chemically modified through conjugation of the epsilon-amino group of the Lysine side chain with (gamma-Glu)2-CO-(CH2)16-CO2H; SITE 20:
In the case of B11, the Relative cAMP EC50 in the test with hGLP-1R was 4.47 nM; in test [1] it was 0.101 nM; in test [2], 5.53 nM. For the same molecule, the cAMP Rel EC50 (1% HSA) with hGLP-1R turned out to be 191 nM; in test [1], 3.89 nM; in test [2] it was 441 nM.
